These results are taken from paper PMC12077085, “Structural elements of cyanobacterial co-factor-independent phosphoglycerate mutase that mediate regulation by PirC” (mBio, 2025).

A word on the Km: it is the concentration of substrate that gives half-maximal velocity. What is called stoichiometry N is the number of molecules, sites or subunits per partner or assembly. One may read the Kd as the equilibrium constant for the complex coming apart. Low readings indicate tighter binding, high ones weaker binding. In general, Vmax refers to the top rate of the reaction or transport when substrate is in excess. In general, kcat refers to the maximal rate divided by the concentration of active sites. As a reminder, the kcat/Km is the second-order rate constant that governs catalysis at low substrate concentration.

The target of data set [1] is T1, iPGAM (Slr1945), strep-iPGAM, iPGAM-WT (Synechocystis sp. PCC 6803, UniProt P74507, INS467TKKGI/DEL468-484, form not given).
T1 construct: gene gpmI; N-terminal strep-tag; expressed in E. coli Lemo21(DE3), Strep-Tactin purified; calculated 60 kDa; monomer by mass photometry
Nature of the data set: coupled enolase / pyruvate kinase / LDH assay, NADH decrease at […] nm. Type of data set: biochemical. As to conditions: 50 µM MnCl2; without PirC.

In data set [2] the target is T2, iPGAM (Slr1945), strep-iPGAM, iPGAM-WT (Synechocystis sp. PCC 6803, UniProt P74507).
T2 construct: gene gpmI; N-terminal strep-tag; expressed in E. coli Lemo21(DE3), Strep-Tactin purified; calculated 60 kDa; monomer by mass photometry
The data set is described as above. The class given is biochemical. As to conditions: 50 µM MnCl2; without PirC.

In data set [3] the target is strep-tagged iPGAM (2,3-bisphosphoglycerate-independent phosphoglycerate mutase, Slr1945) of Synechocystis sp. PCC 6803, wild type (Synechocystis sp. PCC 6803) (UniProt P74507).
Data set [4] has as its target strep-tagged iPGAM-ΔCT (Synechocystis iPGAM with the C-terminal segment deleted) (Synechocystis sp. PCC 6803) (UniProt P74507).
Data set [5] concerns the target strep-tagged iPGAM-Δloop (Synechocystis iPGAM with the loop replaced by TKKGI) (Synechocystis sp. PCC 6803) (UniProt P74507).
Data set [6] concerns the target strep-tagged iPGAM-ΔloopΔCT (Synechocystis iPGAM with the loop replaced by TKKGI and the C-terminal segment deleted) (Synechocystis sp. PCC 6803) (UniProt P74507).
The target in data set [7] is strep-tagged PirC (Sll0944, PII-interacting regulator of carbon metabolism) (Synechocystis sp. PCC 6803) (UniProt P77971). Kind of data set: mass photometry; Refeyn OneMP; strep-iPGAM and strep-PirC alone (iPGAM 10 nM) and mixed at an iPGAM-PirC ratio of 1:3.
In data set [8] the target is strep-tagged iPGAM (2,3-bisphosphoglycerate-independent phosphoglycerate mutase, Slr1945) of Synechocystis sp. PCC 6803, wild type (Synechocystis sp. PCC 6803) (UniProt P74507). Described as above.
Data set [9] concerns the target His-tagged PirC (Sll0944, PII-interacting regulator of carbon metabolism) (Synechocystis sp. PCC 6803) (UniProt P77971). Kind of data set: BLI; Octet K2; His-tagged PirC immobilised on a Ni2+-NTA sensor, strep-iPGAM variants as analytes in various concentrations. For orientation: BLI is a label-free optical method that tracks binding on a fibre tip over time.
Substrate in data set [10]: O=C(O)[C@H](O)COP(=O)(O)O
Nature of the data set: purified protein. The class given is biochemical, Synechocystis sp. PCC 6803. Conditions: 50 µM MnCl2; without PirC.

Chain of His-tagged PirC (Sll0944, PII-interacting regulator of carbon metabolism) (Synechocystis sp. PCC 6803) (P77971 whole entry): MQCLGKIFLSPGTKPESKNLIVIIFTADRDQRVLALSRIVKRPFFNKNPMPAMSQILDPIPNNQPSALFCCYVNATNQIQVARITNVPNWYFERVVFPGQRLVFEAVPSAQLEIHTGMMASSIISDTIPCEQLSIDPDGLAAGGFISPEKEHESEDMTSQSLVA

In the case of `O=C(O)[C@H](O)COP(=O)(O)O` [3-PGA], the results for the Km in data set [1] and in [2] were 547 ± 59 µM and 242 ± 19 µM, respectively.

“His-tagged PirC (Sll0944, PII-interacting regulator of carbon metabolism) (from UniProt P77971 1-164) (natural protein)”: the IC50 of PirC on iPGAM activity, coupled enzyme assay at 0.75 mM 3-PGA (50 to 1,600 nM PirC) in data set [3] was 120 nM; in data set [4], 1070 nM; in data set [5], 217 nM; in data set [6] it was 164 nM.

In the case of “strep-tagged PirC (Sll0944, PII-interacting regulator of carbon metabolism) (from UniProt P77971 1-164) (natural protein)”, in [7], the stoichiometry N turned out to be 6. In [8], the stoichiometry N (PirC monomers per iPGAM) was 3.

Take “strep-tagged iPGAM-ΔCT (Synechocystis iPGAM with the C-terminal segment deleted) (from UniProt P74507 1-532) (enzyme)”: the Kd in data set [9] stood at 114 nM.

For “strep-tagged iPGAM-Δloop (Synechocystis iPGAM with the loop replaced by TKKGI) (from UniProt P74507 1-532) (enzyme)”, the Kd in [9] amounted to 203 nM.

Take “strep-tagged iPGAM-ΔloopΔCT (Synechocystis iPGAM with the loop replaced by TKKGI and the C-terminal segment deleted) (from UniProt P74507 1-532) (enzyme)”: in [9], the Kd was determined as 233 nM.

B1: iPGAM (Slr1945), strep-iPGAM, iPGAM-WT (Synechocystis sp. PCC 6803 substr. Kazusa; DEL468-484/INS467TKKGI) (protein)
chain: MAEAPIAPVVLVILDGWGYRPDTRANAIAQANTPIMDSLIAAYPNTLVNTSGKDVGLPKGQMGNSEVGHLNLGAGRVVPQELVRISDAIEDGTFFDNQALIEVCQRVRDRRGKLHLIGLCSDGGVHSHIDHLLGLIDLAKLQGISQLCIHAITDGRDTPTNEGAHFVQQIQAHLEKIGLGRIVSVSGRYYALDRDRRWDRVEKAYRVMTEDGVGDGRSAAQVIKDYYASDITDEFIPPTRIGAGAIASGDGVIFYNFRPDRARQLCYALVNPSFDGFPRERIQPLDFVTFTQYDPALPVVVAFEPQNLNNILGEIISRQGMKQFRTAETEKYPHVTYFFNGGLEQPFAGEDRELIQSPMVSTYDKAPQMSAKAVTDAVCRAMEKGIYSLVVVNYANPDMVGHTGKLKEAIQAIETVDLNLGRLLASAAKVGGTVLITADHGNAEYMSDESGNPWTAHTTNPVPFILVTKKGIEGGKLADIAPTILDILQLPVPAEMTGKTLIDQPLVEIKANRTPVNLSR
notes: N-terminal strep-tag; expressed in E. coli Lemo21(DE3), Strep-Tactin purified; calculated 60 kDa; monomer by mass photometry
Regarding B1, in data set [10], the Michaelis-Menten constant (Km) came out at 1087 ± 141 µM, the Vmax is 6.86 µmol/min/mg, the kcat turned out to be 6.7 ± 0.4 s⁻¹ and the kcat/Km worked out at 6190 ± 874 M⁻¹ s⁻¹.

B2: strep-tagged iPGAM (2,3-bisphosphoglycerate-independent phosphoglycerate mutase, Slr1945) of Synechocystis sp. PCC 6803, wild type (enzyme)
chain: MAEAPIAPVVLVILDGWGYRPDTRANAIAQANTPIMDSLIAAYPNTLVNTSGKDVGLPKGQMGNSEVGHLNLGAGRVVPQELVRISDAIEDGTFFDNQALIEVCQRVRDRRGKLHLIGLCSDGGVHSHIDHLLGLIDLAKLQGISQLCIHAITDGRDTPTNEGAHFVQQIQAHLEKIGLGRIVSVSGRYYALDRDRRWDRVEKAYRVMTEDGVGDGRSAAQVIKDYYASDITDEFIPPTRIGAGAIASGDGVIFYNFRPDRARQLCYALVNPSFDGFPRERIQPLDFVTFTQYDPALPVVVAFEPQNLNNILGEIISRQGMKQFRTAETEKYPHVTYFFNGGLEQPFAGEDRELIQSPMVSTYDKAPQMSAKAVTDAVCRAMEKGIYSLVVVNYANPDMVGHTGKLKEAIQAIETVDLNLGRLLASAAKVGGTVLITADHGNAEYMSDESGNPWTAHTTNPVPFILVEGEGRKIPGHGGEVKLREGGKLADIAPTILDILQLPVPAEMTGKTLIDQPLVEIKANRTPVNLSR
On to B2, for which the Kd in data set [9] is 378 nM.

B3: iPGAM (Slr1945), strep-iPGAM, iPGAM-WT (Synechocystis sp. PCC 6803 substr. Kazusa) (protein)
chain: B2 chain
notes: as for B1
As to B3, in [10], the Michaelis-Menten constant (Km) was 265 ± 13 µM, the maximum rate (Vmax) turned out to be 18.6 µmol/min/mg, the kcat was 18.6 ± 0.3 s⁻¹ and the kcat/Km was 70200 ± 3590 M⁻¹ s⁻¹.
